± gives the uncertainty stated by the source.

Amyloid nucleation score data for 142 substances are collected here from the supplement of paper PMC12042874.

A short description of this data set: amyloid nucleation score (Sup35N fusion, yeast selection) (log enrichment); library NNK2; higher = more nucleation; inactive = no reads after selection. In outline: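 The nucleation score is the DiMSum log enrichment of output over input reads, centred on the mode score of non-aggregating sequences. Only sequences with 100 or more input reads were scored, using Illumina sequencing of input and output plasmid inserts. Psi-negative yeast expressing Sup35N fused to peptides of 20 random codons were induced 24 hours with 100 μM copper sulfate and grown 7 days at 30°C on medium lacking adenine and uracil.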
Take FTAFWGYSTSVFHMDMCLRK: the amyloid nucleation score turned out to be 2.17 ± 0.071. Then FTFDMVSSKSQYMNIDRNVR, with -0.996 ± 0.78; and FTRRSGSRLWTRFALGDWVA, with “inactive”; and FTSSYKSAVRTLIFVLSESG, with 0.331 ± 0.36. Then FTTFRR, with -0.854 ± 0.55.

The substance FTTPSRS returned an amyloid nucleation score of 0.623 ± 0.53. Take FTVMFLLKMISFKGALHLRL: the amyloid nucleation score was -0.764 ± 0.65. Then FTWLRPRGFS, with -0.676 ± 0.27; and FVDVKHDVVKAMRLWFR, with -0.632 ± 1.1. Then FVEITRG, with -0.196 ± 1.1. Then FVGTCSHYRGCSVCFITDLL, with 6.135 ± 0.057; and FVGVYMVLRSLGDRVSYVMF, with “inactive”. Regarding FVHERASGIVMLRGISVRGP, the amyloid nucleation score was -0.327 ± 0.48. Then FVLSTVRLSAASAPMRFTHL, with 0.468 ± 0.74; and FVNLRFSKVGWYDLF, with -0.255 ± 0.65. Then FVRNKLMADFFWLGFYN, with -1.79 ± 0.63. Then FVSLWT, with 0.277 ± 0.45; and FVTAKSYNVLISKGYRKELL, with -0.716 ± 0.48.

In turn, FVTCYKLWMAFYTMVQSRKS yielded an amyloid nucleation score of 1.17 ± 0.48.

For FVYSVRS, the amyloid nucleation score turned out to be 0.025 ± 0.63. Then FWGGKNYI, with -1.5 ± 0.75; and FWLGSVVGNSCAWVITWAIL, with -0.036 ± 0.44. Then FWVALYFSTCFPHDMLSSGP, with -0.734 ± 0.54; and FWVVIVAHSVSWLLLTWQLE, with 0.553 ± 0.65. Then FYDSVKEISVLSCVWGDILE, with 7.235 ± 0.029.

On to FYIKRVTAVNCDTDSSFNVL, for which the amyloid nucleation score was -0.805 ± 0.42. Then FYISKFLAWFIIPSGLFLGN, with -1.72 ± 1.1. Then FYKHMLVTATFSLMYITQDD, with -0.404 ± 0.48.

On to FYPVFKSMLVMAGVTRHLAR, for which the amyloid nucleation score is -0.487 ± 0.26. Then FYSGKRARMGGEGGEKTPRS, with -1.2 ± 0.48. Then FYVRSSTYFFHVYNYL, with -0.387 ± 0.28; and FYWHCKGWQRISLGRFIGDC, with -0.622 ± 0.61. Then GACVAKATF, with 0.616 ± 0.19; and GAELPKYESRLPFLSAGLRQ, with -0.048 ± 0.53; and GASPWPHTTMIFISILSNCV, with 3.37 ± 0.11. GAVNFYHT: the amyloid nucleation score came out at 4.06 ± 0.044. Then GCDTRHSPLVSNALGLAIAS, with -0.052 ± 0.49; and GCHVRSFK, with 0.158 ± 0.31.

In the case of GCLMVGINGCPIGPM, the amyloid nucleation score was -1.11 ± 1.1. Then GCLPHGY, with 0.663 ± 0.62. GCSVCDMTF registered an amyloid nucleation score of 0.073 ± 0.53. Then GDKVACKEIWTVNVYVNTLG, with 0.229 ± 0.26; and GDKYICELHWRFLGQNSVW, with 4.07 ± 0.11. Then GDMVIDLSKYITYSSL, with 1.37 ± 0.38. Then GDRDVI, with 1.31 ± 0.38; and GDRYSSYSRFEEY, with 0.565 ± 0.19; and GECLDR, with 2.83 ± 0.075. The substance GEFSLF yielded an amyloid nucleation score of 0.2 ± 0.37. Then GEHRQGCYFGAIVFAILMFS, with 0.007 ± 0.55; and GESSPE, with 0.343 ± 0.8; and GFDLNFRYA, with 4.43 ± 0.077. With GFFTPPRVRNNTSEGDVK, the amyloid nucleation score was -0.418 ± 1.1. Then GFHIGDVCNYGVVFSSVARL, with 5.863 ± 0.05; and GFHSCG, with 4.85 ± 0.067; and GFLGCESREKEECSIKERLC, with -0.515 ± 1. The substance GFLQSGCPSTLLSLRKRAIL had an amyloid nucleation score of 0.307 ± 0.51. Then GFPVWVYYKMDLYCLSVKGI, with -0.672 ± 0.61; and GFWEGRILG, with 2.61 ± 0.22; and GGHDCTVPDGFALGWYMTRG, with 0.995 ± 0.51. Then GGIFFCGIWCLVYDVSVFVA, with 3.43 ± 0.11. Then GGLMRTSPNS, with -0.108 ± 1.1; and GGLPGRVVEATCWYPVINVR, with 0.889 ± 0.47; and GGMDNQCHLVRCGRRSLAPV, with 1.65 ± 0.4. With GGPSGQFCYPGGNKGYCN, the amyloid nucleation score is -0.724 ± 1. Then GGSRTRSCQDRAHEGGK, with 0.949 ± 0.74; and GGTIKALYNSSGTRRMSKLR, with -0.224 ± 0.2; and GGTPRSINVF, with 0.201 ± 0.8. Then GGYGLICCYQMLEDSTKDMM, with -0.603 ± 1.1. Then GHCLSYMCVGLA, with 4.304 ± 0.039; and GHLNFS, with -0.166 ± 1.1; and GHLRYTIDTGTTSGSSDLMS, with -0.842 ± 0.63. The substance GHPSIDAQTPV yielded an amyloid nucleation score of 1.39 ± 0.47. Take GICHWGLLFTACFIPWRMRG: the amyloid nucleation score is 1.37 ± 0.32. Then GIFTTWNRISRRLCLRVHYP, with -0.497 ± 0.34. Then GIIDMSRLVMHQITEPLLSQ, with 0.092 ± 0.32; and GILMISDAYDIREYFKLVTF, with -1.32 ± 0.62. Then GIMSSELLYYYVRISYESC, with -1.21 ± 0.45; and GINCRGAIR, with -0.345 ± 0.26; and GINFVF, with -0.287 ± 0.79.

On to GINISVLNMRQLFRLSAGSH, for which the amyloid nucleation score is 4.36 ± 0.086. Then GIYVEEWGHSVPALRWIDKS, with 0.309 ± 0.8; and GKCFIWCSMGIWLGVCDQSA, with 3.59 ± 0.089. Then GKGANARLCIRYDITAVEGT, with 1.61 ± 0.44. Then GKLRLLWKGITCVRAFANKL, with -0.976 ± 0.34; and GKRYCWSLAVNRGFTDTLGV, with 0.261 ± 0.46.

In the case of GKTYLDKLMGGLHRQDPGTR, the amyloid nucleation score was 1.28 ± 0.53.

As to GLCKTVSWRNSSLEKDLFGR, the amyloid nucleation score is -0.813 ± 0.78. Regarding GLCSIYNWYLVFQVIRTLSW, the amyloid nucleation score is 2.41 ± 0.14. Then GLERNRFGRQCLGWLLWNEA, with 0.065 ± 1.1. Then GLFGGIHFVANLGTPPCLDE, with 1.56 ± 0.31; and GLFRWYNMDNYVQI, with -0.604 ± 0.76. Then GLFWVCAGGGKVGEYRYSGV, with 0.021 ± 0.39.

With GLGGTTFI, the amyloid nucleation score is -1.04 ± 0.43. Then GLGVSTKRLYFTMMADCFNG, with 0.131 ± 0.49.

GLHEVR had an amyloid nucleation score of 0.042 ± 0.65. Then GLKMLFNVNLQDM, with -0.368 ± 1; and GLKTMLY, with -0.227 ± 0.27; and GLLAPLSSCLCVRDFVGLKA, with -0.187 ± 0.3. Then GLNIGVCLIMHEDRTNSGGK, with 8.011 ± 0.032. Consider GLRQVGA, for which the amyloid nucleation score was -0.34 ± 0.79. Then GLRTK, with 0.622 ± 0.41; and GLRYIS, with -0.102 ± 0.5. Then GLSGMEGKLS, with -0.398 ± 0.63; and GLYHFRVITASKSQMEGFLM, with -0.018 ± 1.1. Then GMIVVTSGNSR, with -0.037 ± 0.42.

For GMSRYMHSIYD, the amyloid nucleation score was found to be 1 ± 0.41. As to GMSTRQFKLLPGCREVMRAG, the amyloid nucleation score was 0.571 ± 0.64. Then GMYNLSSGYRCERVGVAENI, with -0.513 ± 0.3; and GNIAVYNDAILLVWDNESRT, with -0.714 ± 1; and GNLGSHYALGPLDRATRGER, with 0.632 ± 0.26.

As to GNSYNVKTYTNLVGIIMDKA, the amyloid nucleation score entry is “inactive”.

Consider GNVLFAFTFSVCLKFLAFVF, for which the amyloid nucleation score is -0.407 ± 0.64.

In the case of GNYPPTFACNSN, the amyloid nucleation score entry is “inactive”. Take GPDSLLGFMSAHNWSAKVYP: the amyloid nucleation score is 0.209 ± 0.44.

GPLFPNFKSLGGEYRRH registered an amyloid nucleation score of 0.325 ± 0.42. Then GQLSVVKCRSY, with 1.14 ± 0.29. As for GQNRKLLDLIYRMLGSLLWH, the amyloid nucleation score is 0.309 ± 0.8. GREPESF returned an amyloid nucleation score of 1.72 ± 0.13.

GRFIHKIVLNDGV had an amyloid nucleation score of 0.084 ± 0.56. Then GRIILTLFNYYT, with 6.878 ± 0.062; and GRILNAEVFGVINASDNCAD, with -0.412 ± 0.63; and GRLSISDYIY, with 1.02 ± 0.61. Then GRMWEMACFLATNMLGKSDS, with 0.959 ± 0.29. Then GRPVMMEMPII, with 0.512 ± 0.42. In turn, GRRLSGILRRDGGANGCHRR had an amyloid nucleation score of 0.098 ± 0.42. Then GRSGFYCIHKMSVDTFIQKA, with 4.27 ± 0.074; and GRTSDFKLWIGVCLLGSSYV, with 1.89 ± 0.2; and GRVKTYTVGFVNIIHFSWLG, with 3.57 ± 0.053. Then GSAHTCSTS, with 0.077 ± 0.3; and GSCSEHTKLLI, with -0.455 ± 0.37. Then GSEECTLTDCRGSRQDILKR, with 0.078 ± 0.77; and GSKGIRRYCLTIFVSPVQSA, with 0.895 ± 0.81.

Turning to GSKSCRDYNIKFIYDRYFMG, the amyloid nucleation score entry is “inactive”. Then GSLVQNVFTMDGGDYHMR, with 0.307 ± 0.27. Then GSMSTSASVRPFWRYVFLH, with “inactive”.

As to GSSVDNACQSDLPVQVSMKF, the amyloid nucleation score was -0.478 ± 0.64. Then GSSYNGNTRLTHVGRSVSVR, with -0.632 ± 0.63; and GSTVKYWCMPGSSLLLHCVY, with 0.611 ± 0.66; and GSWFPFWLSASMHGSCIYTR, with -0.576 ± 0.44. Then GSWLCCSLRWSSSALGVGWA, with 1.12 ± 0.39. Then GSWLFREVMPA, with -0.51 ± 0.44. Take GSYHFHASNTD: the amyloid nucleation score was -0.555 ± 0.79.
